According to patent publication US20030175885A1 (REGEN BIOTECH, published 2003):

Columns and labels:
α3β1 integrin [1] = molecular target: T1, α3β1 integrin (UniProt P26006 33-1051; P05556 21-798); assay: HCE cell adhesion and adhesion inhibition assays
T1 construct: whole, on cells; Never used as a purified protein; It is always the receptor on HCE cells in adhesion assays; also called integrin α3β1; functional receptor for βig-h3
Experimental: (§1) Function-blocking experiments using monoclonal antibodies against various integrin subunits were carried out to examine whether α3β1 integrin, known as a surface receptor of βig-h3, would be involved in the cell adhesion mediated by the synthetic peptides EPDIM and NKDIL. HCE was preincubated at 37° C. for 30 min in the presence of each of the monoclonal antibodies (5 μg/ml) against different types of integrins. The preincubated cells were transferred onto plates precoated with 100 μM EPDIM or 100 μM NKDIL and then incubated further at 37° C. for 1 hour, followed by the quantitative analysis with hexosaminidase substrate as in Example 1-2.

α3β1 integrin [2] = molecular target: T1, α3β1 integrin; assay: HCE cell adhesion to coated peptide (100 µM) with function-blocking anti-integrin mAbs
Experimental: as §1

T1 sequence (P26006 33-1051, chain 1 of 2): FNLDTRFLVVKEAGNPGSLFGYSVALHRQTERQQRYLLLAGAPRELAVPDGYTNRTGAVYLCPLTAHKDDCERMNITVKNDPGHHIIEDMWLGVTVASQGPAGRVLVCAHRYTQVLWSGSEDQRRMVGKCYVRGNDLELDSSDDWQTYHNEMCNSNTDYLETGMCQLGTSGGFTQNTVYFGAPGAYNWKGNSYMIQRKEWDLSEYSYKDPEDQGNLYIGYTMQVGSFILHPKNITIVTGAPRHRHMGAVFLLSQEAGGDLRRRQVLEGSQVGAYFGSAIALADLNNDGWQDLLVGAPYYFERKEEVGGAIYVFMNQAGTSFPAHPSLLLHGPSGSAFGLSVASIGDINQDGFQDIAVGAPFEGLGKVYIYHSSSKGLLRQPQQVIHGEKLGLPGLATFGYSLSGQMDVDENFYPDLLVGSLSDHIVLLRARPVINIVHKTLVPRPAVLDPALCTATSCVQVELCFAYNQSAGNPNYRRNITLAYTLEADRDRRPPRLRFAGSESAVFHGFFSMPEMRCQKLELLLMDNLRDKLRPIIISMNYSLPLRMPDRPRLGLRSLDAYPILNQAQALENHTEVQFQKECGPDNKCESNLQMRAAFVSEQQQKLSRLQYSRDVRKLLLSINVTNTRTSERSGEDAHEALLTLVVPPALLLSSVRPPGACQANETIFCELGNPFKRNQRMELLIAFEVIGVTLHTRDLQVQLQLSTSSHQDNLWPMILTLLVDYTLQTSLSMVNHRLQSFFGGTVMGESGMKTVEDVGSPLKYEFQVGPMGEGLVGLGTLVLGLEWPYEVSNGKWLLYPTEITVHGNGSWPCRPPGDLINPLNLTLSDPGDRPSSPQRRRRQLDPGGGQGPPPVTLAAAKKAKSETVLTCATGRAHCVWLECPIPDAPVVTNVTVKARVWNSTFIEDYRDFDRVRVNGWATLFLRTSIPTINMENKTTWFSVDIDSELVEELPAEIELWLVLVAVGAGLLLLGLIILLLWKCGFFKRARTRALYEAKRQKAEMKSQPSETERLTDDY
T1 sequence (P05556 21-798, chain 2 of 2): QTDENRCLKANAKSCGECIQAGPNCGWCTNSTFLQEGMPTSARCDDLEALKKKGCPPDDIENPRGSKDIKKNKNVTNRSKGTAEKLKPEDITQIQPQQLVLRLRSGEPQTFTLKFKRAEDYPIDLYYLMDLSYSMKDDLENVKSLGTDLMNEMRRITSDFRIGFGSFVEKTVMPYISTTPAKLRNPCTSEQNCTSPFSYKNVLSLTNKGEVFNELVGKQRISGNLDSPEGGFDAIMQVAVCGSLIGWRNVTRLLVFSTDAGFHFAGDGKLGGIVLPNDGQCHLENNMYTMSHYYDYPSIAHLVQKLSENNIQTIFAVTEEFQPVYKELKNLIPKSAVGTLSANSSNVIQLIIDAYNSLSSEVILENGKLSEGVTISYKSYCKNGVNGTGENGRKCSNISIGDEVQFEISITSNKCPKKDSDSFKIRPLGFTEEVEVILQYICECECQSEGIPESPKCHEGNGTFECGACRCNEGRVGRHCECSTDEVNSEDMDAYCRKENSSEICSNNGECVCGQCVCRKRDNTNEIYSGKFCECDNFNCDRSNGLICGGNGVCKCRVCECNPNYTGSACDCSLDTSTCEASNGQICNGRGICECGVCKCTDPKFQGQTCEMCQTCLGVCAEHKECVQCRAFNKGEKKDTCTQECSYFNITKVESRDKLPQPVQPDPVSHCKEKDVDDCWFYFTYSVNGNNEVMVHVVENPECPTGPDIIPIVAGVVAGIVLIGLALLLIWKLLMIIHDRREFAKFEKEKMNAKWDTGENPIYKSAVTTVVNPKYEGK

Binder | binding result (α3β1 integrin [1]) | binding result (α3β1 integrin [2])
EPDIM (Made by solid phase synthesis; also called 4th fas-1 domain-derived synthetic peptide; EPDIM (a.a. 615-619)) [synthetic peptide EPDIM] | binds | 
NKDIL (Made by solid phase synthesis; also called 2nd fas-1 domain-derived synthetic peptide; NKDIL (a.a. 354-358)) [synthetic peptide NKDIL] |  | binds
